Article PMC11742450, “Engineering a membrane protein chaperone to ameliorate the proteotoxicity of mutant huntingtin” (Nature Communications, 2025)

Biological target: T1, His6-hsPEX19-WT (human, UniProt P40855 1-299)
T1 construct: human PEX19 (hsPEX19); the human PEX19 gene cloned into pET-33b; Made in E. coli, so probably not farnesylated (surmise); also called human PEX19; His6-PEX19; source: E. coli BL21 Star (DE3), purified (Ni-NTA)
T1 sequence (looked up): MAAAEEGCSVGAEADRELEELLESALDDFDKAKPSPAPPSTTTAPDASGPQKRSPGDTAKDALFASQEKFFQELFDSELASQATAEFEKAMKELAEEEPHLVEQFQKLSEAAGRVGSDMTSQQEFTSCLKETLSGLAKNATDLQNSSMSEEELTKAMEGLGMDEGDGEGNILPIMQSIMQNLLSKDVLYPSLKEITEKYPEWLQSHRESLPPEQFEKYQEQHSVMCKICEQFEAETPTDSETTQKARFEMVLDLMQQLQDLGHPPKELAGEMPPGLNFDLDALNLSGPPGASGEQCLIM
Assay: pull-down; His6-PEX19 pulldown with PEX26; input, flowthrough and elution analysed by Western blot with Strep (PEX26) and PEX19 antibodies; hsPEX19 at about 3-fold the endogenous concentration
Conditions: both partners purified

binding result: binds
B1: 2 × Strep-SUMO-PEX26 (237-305aa) (domain or fragment, UniProt Q7Z412 237-305, looked up)
chain: RQLWDSAVSHFFSLPFKKSLLAALILCLLVVRFDPASPSSLHFLYKLAQLFRWIRKAAFSRLYQLRIRD
